# Measured values: patent US20170267762A1 (APOLLOMICS, published 2017)
# How the values were obtained:
# [1] = molecular target: T1, human PD-1 extracellular domain fused with human Fc tag (hPD-1-hFc) (human); experiment: ELISA on coated PD1-hFc
# T1 construct: also called human PD-1-hFc
# Experimental: (§1) ELISA binding analysis was conducted based on human PD-1-hFc Protein. 96-well plates (Costar, Cat No:9018) were coated with 100 μL of 2 μg/ml PD1-hFc (CrownBio) in coating buffer (PBS, Hyclone, Cat No:SH30256.01B) overnight at 4° C. The wells were aspirated and non-specific binding sites were blocked by adding 200 μL of blocking buffer with 1% (w/v) of bovine serum albumin (BSA, Roche, Cat No: 738328) and incubating for 1 hour at 37° C. After the plates are washed three times with wash buffer (PBS with 0.05%(v/v) Tween20 (Sigma, Cat No:P1379), 100 μL/well of a suitable dilutions of hybridoma supernatant in blocking buffer were added and incubated at room temperature for 1 hour. The plates were washed and incubated with 100 μL/well of Goat anti-Mouse IgG (H+L) (Thermo, Cat No: 31432) in blocking buffer for 60 min. After the plates were washed, 100 μL/well of substrate solution (TMB(eBioscience, Cat No:00-4201-56) was added and the plates were incubated for 2min at room temperature. 100 μL/well of stop solution (2N H2SO4) was added to stop the reaction. The colorimetric signals were developed and read at 450 nm using a Auto Plate SpectraMax Plus (Supplier: Molecular Devices; Model: MNR0643; Software: SoftMax Pro v5.4).
# (§2) Freestyle 293 cells (200 mL at 10⁶/mL) were transfected with 100 μg of each of the chimeric heavy and light chain expression plasmids and cultured for 6 days. The chimeric antibody in the supernatant was then purified with Protein-G column (GE healthcare).
# [2] = molecular target: T2, human PD-1 on cells (293T cells transfected with human PD-1) (human, UniProt Q15116 25-288); experiment: FACS on hPD-1-293T cells
# T2 construct: whole, on cells; Also used as the target for the functional rows, where PD-1 stands on human T cells
# T2 sequence (Q15116 25-288): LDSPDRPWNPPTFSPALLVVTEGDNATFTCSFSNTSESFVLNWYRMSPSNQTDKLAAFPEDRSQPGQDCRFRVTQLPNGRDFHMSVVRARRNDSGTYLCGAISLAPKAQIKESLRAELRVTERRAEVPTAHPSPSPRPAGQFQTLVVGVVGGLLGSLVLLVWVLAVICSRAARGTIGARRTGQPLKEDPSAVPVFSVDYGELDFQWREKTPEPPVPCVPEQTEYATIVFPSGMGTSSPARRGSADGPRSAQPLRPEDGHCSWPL
# Experimental: (§3) The cells were incubated with the indicated antibody (20 ug/ml with the dilution of ⅕) at 4° C. for 1 h. Cells were washed three times with FACS buffer. A secondary antibody (PE Goat anti-mouse: 1:200; PE mouse anti-human: 1:10) was added to the cells at 100 ul/well, and incubated at 4° C. for 40min. Cells were washed three times with FACS buffer and analyzed by FACS Array.
# as §2
# [3] = molecular target: T2, human PD-1 on cells (293T cells …); experiment: FACS blockage on hPD-1-293T cells, competitor biotin PD-L1
# Experimental: Various concentrations of the testing hybridoma antibodies were added to the cell suspension and incubated at 4° C. for 60 minutes in 96 well plates. […] Plates were washed 3 times, and mouse anti-biotin PE antibody (Biolgend, cat# 409004) was added. Flow cytometric analyses were performed using a FACS Array.
# as §2
# [4] = molecular target: T3, human PD-1 extracellular domain fused with mouse Fc (PD-1-mFc) (human, UniProt Q15116 25-170); experiment: blockage ELISA, coated PD-1-mFc, competitor PDL-1-mFc-biotin
# T3 construct: extracellular domain; not used because of the label; also called hPD-1-mFc; human PD-1-mouse Fc fusion protein
# T3 sequence (Q15116 25-170): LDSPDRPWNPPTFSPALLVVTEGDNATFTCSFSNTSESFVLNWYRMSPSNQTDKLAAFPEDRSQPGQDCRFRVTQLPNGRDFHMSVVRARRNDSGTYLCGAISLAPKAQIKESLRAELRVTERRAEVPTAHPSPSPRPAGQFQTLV
# Experimental: (§4) PD-1-mFc antigen (CrownBio) was suspended in PBS (Hyclone,Cat No:SH30256.01B) buffer (2 ug/ml, 100 ul/ well) and coated on the 96 well plate (costar, Cat No.:9018) 4° C. overnight. Plates were washed 3 times using washing buffer: PBS+0.05% Tween 20(Sigma, Cat No.:P1379). 200 ul of blocking buffer (PBS+1%BSA(Roche, Cat No.:738328)), was added to each well, incubated at 37° C. for 1 hour, and washed 3 times. Various concentrations (suitable dilutions of hybridoma supernatant in PBS) of the anti-PD-1 Abs were added to the wells (100 μl/well) and incubated at 37° C. for 1 hour. […] Secondary antibody (Avidin HRP eBioscience cat No.:E07418-1632, 1:500, 100 ul/well) was added, incubated at 37 ° C. for 0.5 hour, and washed 3 times. TMB (Sigma, Cat No.: T0440, 100 ul/well) was added, and incubated for 3 min at RT. To stop the reaction, 2N H2SO4 (100 ul/well), was added. The colorimetric signals were developed and read at 450 nm using a Auto Plate SpectraMax Plus (Supplier: Molecular Devices; Model: MNR0643; Software: SoftMax Pro v5.4).
# as §2
# [5] = molecular target: T2, human PD-1 on cells (293T cells …); experiment: FACS binding to 293T cells expressing human PD-1, MFI
# Experimental: as §3
# [6] = molecular target: T1, human PD-1 extracellular domain fused …; experiment: ELISA binding to plate-bound PD-1, OD450 (methods similar to Example 2: plate coated with PD1-hFc)
# Experimental: as §1
# [7] = molecular target: T3, human PD-1 extracellular domain fused …; experiment: ELISA ligand blockage: biotinylated PD-L1-mFc binding to plate-bound PD-1, OD450 (methods similar to Example 2: PD-1-mFc coated)
# Experimental: as §4
# T1 sequence (chain, as listed by the source limits assumed): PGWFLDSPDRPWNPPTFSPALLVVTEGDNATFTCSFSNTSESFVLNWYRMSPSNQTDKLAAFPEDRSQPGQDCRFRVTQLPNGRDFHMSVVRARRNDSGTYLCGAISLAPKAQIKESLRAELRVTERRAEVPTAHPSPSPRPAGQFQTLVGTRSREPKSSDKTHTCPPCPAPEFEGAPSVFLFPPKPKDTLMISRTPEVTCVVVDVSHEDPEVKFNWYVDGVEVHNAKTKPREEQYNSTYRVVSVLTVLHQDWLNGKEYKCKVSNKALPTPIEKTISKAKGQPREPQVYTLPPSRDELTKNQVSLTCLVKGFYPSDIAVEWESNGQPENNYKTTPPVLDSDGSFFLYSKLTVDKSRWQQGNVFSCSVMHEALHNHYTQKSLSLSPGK
Binder,EC50 [1],EC50 [2],IC50 [3],IC50 [4],EC50 [5],EC50 [6],IC50 [7]
"chimeric 13F1-hIgG4 (antibody, V domains shown, Full chimeric chains; also called 13F1-chimeric) VH: DVQLQESGPGLVKPSQSLSLTCTVTGYSITSDYAWNWIRQFPGNQLEWMAYISYSGYTSYNPSLKSRISITRDTSKNQFFLQLNSVTTEDTATYYCARSLDYDYGTMDYWGQGTSVTVSS VL: QIVLSQSPAILSASPGEKVTMTCRANSSVSSMHWYQQKPGSSPEPWIYAISNLAFGVPTRFSGSGSGTSYSLTISRVEAEDAATYFCQQWSSRPPTFGGGTKLEIKR",0.0587 µg/mL,0.113 µg/mL,0.0521 µg/mL,0.856 µg/mL,0.0815 µg/mL,0.0456 µg/mL,0.878 µg/mL
"chimeric 7A4-hIgG4 (antibody, Full chimeric chains) heavy: not shown light: DIVLTQSPASLAVSLGQRATISCRASESVDNYGYSFMNWFQQKPGQPPKLLIYRASNLESGIPARFSGSGSRTNFTLTINPVEADDVATYFCQQSNADPTFGGGTNLEIKRTVAAPSVFIFPPSDEQLKSGTASVVCLLNNFYPREAKVQWKVDNALQSGNSQESVTEQDSKDSTYSLSSTLTLSKADYEKHKVYACEVTHQGLSSPVTKSFNRGEC",0.062 µg/mL,0.0916 µg/mL,0.0706 µg/mL,0.871 µg/mL,0.137 µg/mL,0.0474 µg/mL,0.845 µg/mL
"chimeric 7A4-hIgG1 (antibody, Full chimeric chains; also called 7A4-chimeric-IgG1) heavy: not shown light: DIVLTQSPASLAVSLGQRATISCRASESVDNYGYSFMNWFQQKPGQPPKLLIYRASNLESGIPARFSGSGSRTNFTLTINPVEADDVATYFCQQSNADPTFGGGTNLEIKRTVAAPSVFIFPPSDEQLKSGTASVVCLLNNFYPREAKVQWKVDNALQSGNSQESVTEQDSKDSTYSLSSTLTLSKADYEKHKVYACEVTHQGLSSPVTKSFNRGEC",,,,,0.0337 µg/mL,0.0128 µg/mL,0.356 µg/mL
"chimeric 14A6-hIgG4 (antibody, V domains shown, Mouse variable regions with human IgG4 constant region) VH: DVQLQESGPGLVKPSQSLSLTCTVTGYSITSDYAWNWIRQFPGNQLEWMAYISYSGYTSYNPSLKSRISITRDTSRNQFFLQLNSVTTEDTATYYCARSLDYDYGTMDYWGQGTSVTVSS VL: QIVLSQSPAILSASPGEKVTMTCRANSSVSSMHWYQQKPGSSPEPWIYAISNLAFGVPARFSGSGSGTSYSLTISRVEAEDAATYFCQQWNSRPPTFGGGTKLEIKR",0.0646 µg/mL,0.103 µg/mL,0.0614 µg/mL,0.823 µg/mL,,,
"chimeric 10D1-hIgG4 (antibody, V domains shown, Mouse variable regions with human IgG4 constant region) VH: EVKLVESGGGLVKPGGSLKLSCAASGFTFSSYGMSWLRQTPEKRLEWVATMSGGGRDIYYPDSMKGRFTISRDNAKNNLYLQMSSLRSEDTALYYCARQYYDDWFAYWGQGTLVTVSA VL: DIVLTQTPATLSVTPGDSVSLSCRASQSISNNLHWYQQKSHESPRLLIKYASQSISGIPSRFSGSGSGTDFTLNINSVETEDFGMYFCQQSNSWPLTFGAGTKLELKR",0.0588 µg/mL,0.219 µg/mL,0.0403 µg/mL,1.03 µg/mL,,,
"chimeric 4C10-hIgG4 (antibody, V domains shown, Mouse variable regions with human IgG4 constant region) VH: QVQLKQSGPGLVQPSQNLSVTCTVSGFSLTTYGVHWVRQSPGKGLEWLGVIWSGGSTDYNAAFISRLTISKDNARSQVFFKMNSLQVNDTAMYYCAREKSVYGNYVGAMDYWGQGTSVTVSS VL: SIVMTQTPKFLLVSAGDRVTITCKASQSVSDDVAWYQQKPGQSPKLLIYYAFNRYTGVPDRFTGSGYGTDFTFTISTVQSEDLAVYFCQQDYRSPWTFGGGTKLEIKR",0.0946 µg/mL,0.221 µg/mL,0.129 µg/mL,0.978 µg/mL,,,
